Experiments:
[1] = Excitation and emission spectra by fluorometer; format: physicochemical; settings: same concentration, 1 μM in 1 mL of PBS
Experimental: FIG. 38B—Excitation (Ex) & emission (Em) spectra of OTL78 (1 μM) and S0456 (1 μM) in 1 mL of PBS obtained using fluorometer.
Results and Conclusions: In an effort to improve limitations in current clinical practice of radical prostatectomy and tumor-specific imaging agents that are in the preclinical stages, OTL78 was assembled using: (i) a high affinity PSMA-targeting ligand (coined DUPA), (ii) a rationally designed 14 atoms long polyethylene glycol-dipeptide linker, and (iii) an inexpensive NIR dye ([…]) named S0456 (see FIG. 38A for the chemical structure). The dipeptide consisting of phenylalanine-tyrosine was designed to fit to the contours and chemistry of the tunnel accessing the binding pocket of the PSMA protein.

basophils = assay: Basophil activation test (Flow CAST) in human blood samples; format: cell-based
Experimental: Tolerability Studies: The blood samples were collected into hirudin tubes and used within an hour of collection. For each donor, 4 different tubes were prepared for allergen, positive controls, and negative control. Samples were analyzed using Flow CAST® high sensitivity Basophil Activation Test (BAT). Briefly, stimulation buffer (100 μL, background) or anti-FcεER antibody (100 μL) or fMLP (100 μL) or OTL78 (75 μM in 100 μL of saline) was added to tubes containing stimulation buffer (200 μL). 100 μL of blood was added to each tube and mixed gently. After adding staining reagent (40 μL) containing anti-CD63-CD203c-PE-DY647 and anti-CCR3-PE, each tube was mixed gently and incubated for 15 minutes at 37° C. Lysing reagent (2 mL) was added to each tube, mixed gently, incubated for 5-10 minutes at room temperature, and centrifuged for 5 minutes at 500×g. The supernatant was discarded and the cells were re-suspended in wash buffer (900 μL) and analyzed using flow cytometry. CD63-CD203c-PE-DY647+/CCR3-PE+ cell population considered as the activated basophils.

[2] = Safety study of OTL78 (body weight, histopathology, clinical pathology)
Experimental: Safety Study: Seven-week-old healthy male Balb/c (5 mice/group) were administered with 6 μmol of freshly prepared OTL78 or saline dissolved in 100 μL of saline via tail vein injection on day zero. Body weights and clinical observations were monitored prior to dosing and daily thereafter from day zero to 14.
For immunohistopathology (IHC) studies, the animals were euthanized by CO2 asphyxiation on the day 14 and selected tissues (brain, heart, lung, liver, spleen, kidney, stomach, small intestine, large intestine, muscle, and skin) were collected into vials containing 4% formalin. Formalin fixed tissues were sectioned into 10 μm thick sections and mounted onto Superfrost Plus™ slides (Fisher Scientific, Pittsburgh Pa.). After staining the slides with H&E, IHC analysis of the tissues was conducted to determine to the toxicity of OTL78.
For clinical pathology studies, the animals were euthanized by CO2 asphyxiation on the day 14 and blood was collected to heparin by cardiac punch and blood work analysis was conducted at Purdue clinical pathology lab.

**Q.** Which “enhancement of the fluorescence of S0456” value [1] does the source give for `CC1(C)C(/C=C/C2=C(Oc3ccc(C[C@H](NC(=O)[C@H](Cc4ccccc4)NC(=O)CCOCCOCCNC(=O)CC[C@H](NC(=O)N[C@@H](CCC(=O)O)C(=O)O)C(=O)O)C(=O)O)cc3)C(=C/C=C3/N(CCCCS(=O)(=O)O)c4ccc(S(=O)(=O)O)cc4C3(C)C)/CCC2)=[N+](CCCCS(=O)(=O)[O-])c2ccc(S(=O)(=O)O)cc21` [OTL78] here?
**A.** The value was ≥ 2.

**Q.** And the “stimulated index” value (basophils; FIG. 47E, ≥2 considered positive response)?
**A.** Its value is 1.

**Q.** And the “Percent of basophile activation, Avg” value (basophils; average of 3 healthy subjects)?
**A.** Its value is 2.8%.

**Q.** What about the “Percent of basophile activation, Subject 1” value (basophils; healthy subjects, OTL78 75 μM) of the same molecule?
**A.** The value was 2.64%.

**Q.** What about the “Percent of basophile activation, Subject 2” value (basophils; healthy subjects, OTL78 75 μM) of the same molecule?
**A.** The value was 2.67%.

**Q.** What about the “Percent of basophile activation, Subject 3” value (basophils; healthy subjects, OTL78 75 μM) of the same molecule?
**A.** The value was 3.14%.

**Q.** And the “SI = Avg/background” value (basophils; stimulation index, ≥2 considered positive response)?
**A.** The value was 1.1.

**Q.** And the “body weight change over the course of the study” value ([2]; 6 μmol/mouse (600× of normal dose), day zero to 14)?
**A.** Its value is < 5 % increase.

**Q.** What about the “clinical pathology analysis on blood samples” value ([2]; 6 μmol/mouse, day 14) of the same molecule?
**A.** Its value is “No noticeable toxicities”.

**Q.** What about the “pathological changes in H&E staining of tissues” value ([2]; 6 μmol/mouse, day 14) of the same molecule?
**A.** Its value is “no obvious pathological changers”.
